Data published in article PMC2924879.
Read-outs that look alike come from different tables or passages of the source.

Experiments:
Assay in all cases: AUC
[1] = target: vMIP-II L13F (human herpesvirus-8)
[2] = target: vMIP-II L13F (human herpesvirus-8); remark: listed apart in the source
[3] = target: vMIP-II L13F (human herpesvirus-8); remark: listed apart in the source

Substance vMIP-II L13F (natural protein) has a Kd [1] of 129 µM, a Kd [2] of 0.74 µM and a Kd [3] of 41 µM. For the same substance, the stoichiometry N [3] was 2.
